Source: patent US20230034906A1 (TRINOMAB BIOTECH, published 2023)

Tests used:
[1] = molecular target: T1, gB_Towne protein with N302 mutated into glutamine (human cytomegalovirus, strain Towne, UniProt F5HB53 25-700); experiment: indirect ELISA, antibody titrated on gB glycoprotein mutant
T1 chain: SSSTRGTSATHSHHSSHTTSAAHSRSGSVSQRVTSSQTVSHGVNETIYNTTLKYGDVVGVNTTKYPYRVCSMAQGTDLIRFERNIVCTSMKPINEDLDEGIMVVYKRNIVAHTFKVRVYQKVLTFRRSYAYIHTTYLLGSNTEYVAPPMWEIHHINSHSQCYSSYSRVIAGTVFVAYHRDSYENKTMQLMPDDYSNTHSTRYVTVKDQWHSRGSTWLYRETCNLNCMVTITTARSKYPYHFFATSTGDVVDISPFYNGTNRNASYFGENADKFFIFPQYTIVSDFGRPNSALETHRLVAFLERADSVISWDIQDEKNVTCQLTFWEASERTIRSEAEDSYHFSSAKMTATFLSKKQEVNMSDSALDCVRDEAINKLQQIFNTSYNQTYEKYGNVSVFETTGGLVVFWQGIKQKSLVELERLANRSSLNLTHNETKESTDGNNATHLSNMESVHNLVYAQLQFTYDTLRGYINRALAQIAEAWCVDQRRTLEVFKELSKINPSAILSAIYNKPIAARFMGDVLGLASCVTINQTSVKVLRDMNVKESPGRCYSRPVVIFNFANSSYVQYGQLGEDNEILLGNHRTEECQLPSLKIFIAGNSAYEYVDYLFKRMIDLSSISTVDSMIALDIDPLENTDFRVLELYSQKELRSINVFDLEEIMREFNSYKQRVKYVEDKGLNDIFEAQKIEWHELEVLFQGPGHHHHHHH

[2] = molecular target: T2, gB_Towne protein with N341 mutated into glutamine (human cytomegalovirus, strain Towne, UniProt F5HB53 25-700); experiment: as above
T2 chain: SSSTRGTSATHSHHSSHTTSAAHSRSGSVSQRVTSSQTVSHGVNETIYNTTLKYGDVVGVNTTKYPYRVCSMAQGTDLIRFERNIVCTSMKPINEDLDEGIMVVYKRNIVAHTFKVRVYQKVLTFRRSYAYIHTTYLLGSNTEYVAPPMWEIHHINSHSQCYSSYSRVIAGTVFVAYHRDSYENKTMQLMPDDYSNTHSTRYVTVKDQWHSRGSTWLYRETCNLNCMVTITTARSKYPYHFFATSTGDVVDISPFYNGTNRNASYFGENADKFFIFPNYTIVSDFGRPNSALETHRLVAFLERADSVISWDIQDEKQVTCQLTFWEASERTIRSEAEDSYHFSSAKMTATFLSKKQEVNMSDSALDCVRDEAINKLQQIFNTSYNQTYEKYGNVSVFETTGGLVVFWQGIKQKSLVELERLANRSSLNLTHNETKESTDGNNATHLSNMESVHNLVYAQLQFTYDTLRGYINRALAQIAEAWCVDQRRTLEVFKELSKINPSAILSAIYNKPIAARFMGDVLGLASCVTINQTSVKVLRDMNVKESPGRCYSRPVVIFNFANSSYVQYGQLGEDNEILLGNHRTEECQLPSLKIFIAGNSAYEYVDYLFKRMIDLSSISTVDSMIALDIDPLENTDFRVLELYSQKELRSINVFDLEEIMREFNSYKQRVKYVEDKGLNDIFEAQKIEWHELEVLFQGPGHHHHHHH

[3] = molecular target: T3, gB_Towne protein with N447 mutated into glutamine (human cytomegalovirus, strain Towne, UniProt F5HB53 25-700); experiment: as above
T3 chain: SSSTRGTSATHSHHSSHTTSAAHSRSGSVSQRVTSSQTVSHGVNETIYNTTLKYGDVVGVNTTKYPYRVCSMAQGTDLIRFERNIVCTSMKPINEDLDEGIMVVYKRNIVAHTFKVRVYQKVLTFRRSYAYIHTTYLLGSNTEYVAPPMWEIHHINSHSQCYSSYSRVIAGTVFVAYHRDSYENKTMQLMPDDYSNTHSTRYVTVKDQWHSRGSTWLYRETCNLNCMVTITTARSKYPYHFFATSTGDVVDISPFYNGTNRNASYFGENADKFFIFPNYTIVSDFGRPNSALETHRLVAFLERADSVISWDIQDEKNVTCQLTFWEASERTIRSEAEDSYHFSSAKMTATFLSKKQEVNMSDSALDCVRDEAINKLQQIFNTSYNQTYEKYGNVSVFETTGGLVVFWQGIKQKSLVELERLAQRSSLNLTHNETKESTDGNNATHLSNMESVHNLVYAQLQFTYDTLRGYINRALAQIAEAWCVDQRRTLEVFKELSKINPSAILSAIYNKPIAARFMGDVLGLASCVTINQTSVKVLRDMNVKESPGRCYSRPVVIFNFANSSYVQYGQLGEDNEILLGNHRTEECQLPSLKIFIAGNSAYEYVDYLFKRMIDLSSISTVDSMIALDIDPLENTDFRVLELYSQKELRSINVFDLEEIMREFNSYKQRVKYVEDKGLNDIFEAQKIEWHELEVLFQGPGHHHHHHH

[4] = molecular target: T4, HCMV gB glycoprotein of standard strain Towne (gB_Towne strain) (human cytomegalovirus, strain Towne, UniProt F5HB53 25-700); experiment: SPR (Biacore), antibody captured on anti-human IgG (Fc) CM5 chip, gB glycoprotein as analyte
T4 construct: also called antigen protein gB0049

Measured: binding result

B1: TRN1019 (antibody, V domains shown)
VH: QVQLVQSGAEVKKPGESLKISCKGSGYTFTNYWIGWVRQMPGAGLEWMAIIFPRDSYSAYSPSFQGRVTISVDKSISTAYLHWSSLEASDTAVYYCAIYNDLRSGNSWGQGTPLIVSS
VL: DIQMTQSPSSLSASVGDRVTITCRASQSITKYLNWYQQKPGRAPKLLIHTTSTLQSGVPSRFSGSGSGTDFTLTISSLQLEDFGTYYCQQSFSTLWTFGQGTKLDIKR
notes: Fully human antibody; kappa light chain
binds: all assays above
